# T1: recombinant mouse CD47 (SinoBiological 57231-MNAH) (mouse, UniProt Q61735 19-140, limits assumed)
# T1 construct: Bought protein coated on ELISA plates at 1 ug/mL; also called mCD47
# T1 sequence (looked up): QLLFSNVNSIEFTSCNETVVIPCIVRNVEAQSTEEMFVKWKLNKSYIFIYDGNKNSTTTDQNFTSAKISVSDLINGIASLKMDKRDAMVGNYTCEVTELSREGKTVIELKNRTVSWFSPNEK
# T2: FcγRIV
# T2 construct: also called mouse FcγRIV; mFcγRIV
# T2 chain: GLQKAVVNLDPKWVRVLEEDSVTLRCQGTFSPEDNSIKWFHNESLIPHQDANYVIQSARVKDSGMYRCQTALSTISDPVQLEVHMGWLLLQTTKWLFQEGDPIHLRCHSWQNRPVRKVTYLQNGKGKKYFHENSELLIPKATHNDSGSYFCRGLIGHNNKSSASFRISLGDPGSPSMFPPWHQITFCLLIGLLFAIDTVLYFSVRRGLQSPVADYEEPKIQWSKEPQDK
# T3: FcγRIIb (mouse, UniProt P08101)
# T3 construct: also called mouse FcγRIIb; mFcγRIIB
# T3 sequence (receptor, looked up): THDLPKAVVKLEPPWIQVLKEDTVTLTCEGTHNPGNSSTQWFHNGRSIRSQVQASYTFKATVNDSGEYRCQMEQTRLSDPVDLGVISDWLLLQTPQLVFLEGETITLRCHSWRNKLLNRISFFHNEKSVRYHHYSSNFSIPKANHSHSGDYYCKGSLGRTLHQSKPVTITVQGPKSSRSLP
# T4: FcγRIII (mouse, UniProt P08508)
# T4 construct: also called mouse FcγRIII; mFcγRIII
# T4 sequence (receptor, looked up): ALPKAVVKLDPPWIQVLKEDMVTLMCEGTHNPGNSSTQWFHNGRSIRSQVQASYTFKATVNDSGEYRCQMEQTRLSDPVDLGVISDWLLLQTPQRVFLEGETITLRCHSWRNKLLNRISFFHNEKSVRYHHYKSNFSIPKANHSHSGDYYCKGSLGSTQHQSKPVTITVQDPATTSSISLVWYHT
# T5: FcγRI (mouse, UniProt P26151)
# T5 construct: also called mouse FcγRI; mFcγRI
# T5 sequence (receptor, looked up): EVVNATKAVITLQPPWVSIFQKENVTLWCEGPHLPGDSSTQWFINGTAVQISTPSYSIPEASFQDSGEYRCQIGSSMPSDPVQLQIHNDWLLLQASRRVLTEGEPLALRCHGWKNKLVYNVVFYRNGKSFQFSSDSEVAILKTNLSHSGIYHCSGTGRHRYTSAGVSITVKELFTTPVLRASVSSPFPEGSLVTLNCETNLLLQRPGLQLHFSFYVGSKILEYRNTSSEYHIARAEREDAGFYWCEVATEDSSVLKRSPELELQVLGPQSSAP
# T6: FcγRIIb (human, UniProt P31994)
# T6 construct: also called human FcγRIIb; hFcγRIIB
# T6 sequence (receptor, looked up): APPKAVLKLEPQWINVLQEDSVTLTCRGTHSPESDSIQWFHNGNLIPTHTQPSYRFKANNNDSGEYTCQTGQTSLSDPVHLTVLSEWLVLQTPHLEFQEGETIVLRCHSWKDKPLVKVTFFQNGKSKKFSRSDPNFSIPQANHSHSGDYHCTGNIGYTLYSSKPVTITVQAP
# B1: MIAP301-mIgG1-D265A (antibody)
# heavy: QVKLLQSGAALVKPGASVKMSCQASGYSFTDYWVTWVKQSHGQSLEWIGEIYPSNTVTNFNDNFKGKATLTVDKSTSTAYMELSRLTSEDSAIYYCTRLGNSGYRVGWFLYWGQGTLVTVISASTKGPSVYPLAPGSAAQTNSMVTLGCLVKGYFPEPVTVTWNSGSLSSGVHTFPAVLQSDLYTLSSSVTVPSSTWPSQTVTCNVAHPASSTKVDKKIVPRDCGCKPCICTVPEVSSVFIFPPKPKDVLTITLTPKVTCVVVAISKDDPEVQFSWFVDDVEVHTAQTKPREEQINSTFRSVSELPIMHQDWLNGKEFKCRVNSAAFPAPIEKTISKTKGRPKAPQVYTIPPPKEQMAKDKVSLTCMITNFFPEDITVEWQWNGQPAENYKNTQPIMDTDGSYFVYSKLNVQKSNWEAGNTFTCSVLHEGLHNHHTEKSLSHSPGK
# VL: SDTVLTQSPALAVSPGERVTISCKASESVSSHMHWYQQKPGQQPKLLIYKASNLASGVPARFSGSGSGTDFTLTIDPVEADDTATYFCQQGWNGPFTFGAGTRLELKRAVD
# notes: Heavy chain assembled from the VH entry and the constant region entry named for the Fc format; also called mIgG1-D265A Fc variant of MIAP301
# B2: MIAP301-mIgG1 (antibody)
# heavy: QVKLLQSGAALVKPGASVKMSCQASGYSFTDYWVTWVKQSHGQSLEWIGEIYPSNTVTNFNDNFKGKATLTVDKSTSTAYMELSRLTSEDSAIYYCTRLGNSGYRVGWFLYWGQGTLVTVISAS
# VL: B1 VL
# notes: also called mIgG1 Fc variant of MIAP301; not shown: mouse IgG1 heavy chain constant region, wild type
# B3: MIAP301-mIgG2a (antibody)
# heavy: QVKLLQSGAALVKPGASVKMSCQASGYSFTDYWVTWVKQSHGQSLEWIGEIYPSNTVTNFNDNFKGKATLTVDKSTSTAYMELSRLTSEDSAIYYCTRLGNSGYRVGWFLYWGQGTLVTVISASTTAPSVYPLAPVCGGTTGSSVTLGCLVKGYFPEPVTLTWNSGSLSSGVHTFPALLQSGLYTLSSSVTVTSNTWPSQTITCNVAHPASSTKVDKKIEPRVPITQNPCPPLKECPPCAAPDLLGGPSVFIFPPKIKDVLMISLSPMVTCVVVDVSEDDPDVQISWFVNNVEVHTAQTQTHREDYNSTLRVVSALPIQHQDWMSGKEFKCKVNNRALPSPIEKTISKPRGPVRAPQVYVLPPPAEEMTKKEFSLTCMITGFLPAEIAVDWTSNGRTEQNYKNTATVLDSDGSYFMYSKLRVQKSTWERGSLFACSVVHEGLHNHLTTKTISRSLGK
# VL: B1 VL
# notes: Heavy chain assembled from the VH entry and the constant region entry named for the Fc format; also called mIgG2a Fc variant of MIAP301; anti-mCD47 ab clone MIAP301 (mIgG2a Fc)
# B4: IgG1 D265A (antibody)
# heavy chain constant region: TKGPSVYPLAPGSAAQTNSMVTLGCLVKGYFPEPVTVTWNSGSLSSGVHTFPAVLQSDLYTLSSSVTVPSSTWPSQTVTCNVAHPASSTKVDKKIVPRDCGCKPCICTVPEVSSVFIFPPKPKDVLTITLTPKVTCVVVAISKDDPEVQFSWFVDDVEVHTAQTKPREEQINSTFRSVSELPIMHQDWLNGKEFKCRVNSAAFPAPIEKTISKTKGRPKAPQVYTIPPPKEQMAKDKVSLTCMITNFFPEDITVEWQWNGQPAENYKNTQPIMDTDGSYFVYSKLNVQKSNWEAGNTFTCSVLHEGLHNHHTEKSLSHSPGK
# notes: also called mIgG1-D265A; mouse IgG1 D265A (Fc format)
# B5: 5F9-GAALIE (antibody, human IgG1)
# heavy chain: QVQLVQSGAEVKKPGASVKVSCKASGYTFTNYNMHWVRQAPGQRLEWMGTIYPGNDDTSYNQKFKDRVTITADTSASTAYMELSSLRSEDTAVYYCARGGYRAMDYWGQGTLVTVSSASTKGPSVFPLAPSSKSTSGGTAALGCLVKDYFPEPVTVSWNSGALTSGVHTFPAVLQSSGLYSLSSVVTVPSSSLGTQTYICNVNHKPSNTKVDKRVEPKSCDKTHTCPPCPAPELLAGPSVFLFPPKPKDTLMISRTPEVTCVVVDVSHEDPEVKFNWYVDGVEVHNAKTKPREEQYNSTYRVVSVLTVLHQDWLNGKEYKCKVSNKALPLPEEKTISKAKGQPREPQVYTLPPSREEMTKNQVSLTCLVKGFYPSDIAVEWESNGQPENNYKTTPPVLDSDGSFFLYSKLTVDKSRWQQGNVFSCSVMHEALHNHYTQKSLSLSPGK
# light chain: DIVMTQSPLSLPVTPGEPASISCRSSQSIVYSNGNTYLGWYLQKPGQSPQLLIYKVSNRFSGVPDRFSGSGSGTDFTLKISRVEAEDVGVYYCFQGSHVPYTFGQGTKLEIKVDAPSVFIFPPSDEQLKSGTASVVCLLNNFYPREAKVQWKVDNALQSGNSQESVTEQDSKDSTYSLSSTLTLSKADYEKHKVYACEVTHQGLSSPVTKSFNRGEC
# notes: also called 5F9-hIgG1-GAALIE; GAALIE 5F9 ab
# B6: mouse CD47 on RBCs of WT (C57BL/6J) mice (receptor, UniProt Q61735 19-303, looked up)
# chain: QLLFSNVNSIEFTSCNETVVIPCIVRNVEAQSTEEMFVKWKLNKSYIFIYDGNKNSTTTDQNFTSAKISVSDLINGIASLKMDKRDAMVGNYTCEVTELSREGKTVIELKNRTVSWFSPNEKILIVIFPILAILLFWGKFGILTLKYKSSHTNKRIILLLVAGLVLTVIVVVGAILLIPGEKPVKNASGLGLIVISTGILILLQYNVFMTAFGMTSFTIAILITQVLGYVLALVGLCLCIMACEPVHGPLLISGLGIIALAELLGLVYMKFVASNQRTIQPPRNR
# notes: whole, on cells; The legend names the cells (RBCs from WT mice); also called mCD47 on WT RBCs
# B7: IgG2a (antibody)
# heavy chain constant region: TTAPSVYPLAPVCGGTTGSSVTLGCLVKGYFPEPVTLTWNSGSLSSGVHTFPALLQSGLYTLSSSVTVTSNTWPSQTITCNVAHPASSTKVDKKIEPRVPITQNPCPPLKECPPCAAPDLLGGPSVFIFPPKIKDVLMISLSPMVTCVVVDVSEDDPDVQISWFVNNVEVHTAQTQTHREDYNSTLRVVSALPIQHQDWMSGKEFKCKVNNRALPSPIEKTISKPRGPVRAPQVYVLPPPAEEMTKKEFSLTCMITGFLPAEIAVDWTSNGRTEQNYKNTATVLDSDGSYFMYSKLRVQKSTWERGSLFACSVVHEGLHNHLTTKTISRSLGK
# notes: The variable region is not specified there; also called mIgG2a; mouse IgG2a subclass (Fc format)
# Legend:
# [1] = target: T1, recombinant mouse CD47 (SinoBiological …); assay: ELISA on plate-coated recombinant mouse CD47 (1 ug/mL), HRP-conjugated anti-IgG, absorbance 450 nm
# Method: All sequential steps were performed at room temperature. After washing, the plates were blocked for 1 hour with 1×PBS containing 2% BSA) and were subsequently incubated for 1 hour with serially diluted IgGs (dilutions are indicated in the figures and were prepared in blocking solution). After washing, plates were incubated for 1 hour with horseradish peroxidase conjugated anti-human or anti-mouse IgG (Jackson IummunoResearch). […] Detection was performed using a one component substrate solution (TMB), and reactions stopped with the addition of 2 M phosphoric acid. Absorbance at 450 nm was immediately recorded using a SpectraMax Plus spectrophotometer (Molecular Devices), and background absorbance from negative control samples was subtracted.
# FcγRIV = target: T2, FcγRIV; assay: no assay stated; drawn summary table of graded binding (- to ++++), for which the text cites Nimmerjahn et al. 2005
# FcγRIIb [2] = target: T3, FcγRIIb; assay: as above
# FcγRIII = target: T4, FcγRIII; assay: as above
# FcγRI [3] = target: T5, FcγRI; assay: as above
# FcγRI [4] = target: T7, FcγRI (human, UniProt P12314); assay: no assay stated; drawn summary table of graded binding (- to ++++), for which the text cites Weitzenfeld et al. 2019
# T7 construct: also called human FcγRI; hFcγRI
# T7 sequence (P12314 16-288 limits assumed): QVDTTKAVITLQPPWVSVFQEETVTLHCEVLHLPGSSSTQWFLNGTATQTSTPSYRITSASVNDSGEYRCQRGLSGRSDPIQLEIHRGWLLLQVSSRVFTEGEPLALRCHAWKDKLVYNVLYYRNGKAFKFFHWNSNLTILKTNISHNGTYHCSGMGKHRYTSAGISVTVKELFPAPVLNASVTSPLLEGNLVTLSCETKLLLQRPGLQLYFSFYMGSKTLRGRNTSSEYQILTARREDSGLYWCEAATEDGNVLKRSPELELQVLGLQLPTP
# FcγRIIb [5] = target: T6, FcγRIIb; assay: as above
# [6] = target: T8, recombinant human SIRPα-hFc (SinoBiological 11612-H02H1) (human, UniProt P78324 31-370); assay: flow cytometry: recombinant hSIRPα incubated with RBCs of WT mice
# T8 construct: Bought fusion protein; also called hSIRPα; recombinant hSIRPα; not shown: human Fc (hFc)
# T8 sequence (P78324 31-370 limits assumed): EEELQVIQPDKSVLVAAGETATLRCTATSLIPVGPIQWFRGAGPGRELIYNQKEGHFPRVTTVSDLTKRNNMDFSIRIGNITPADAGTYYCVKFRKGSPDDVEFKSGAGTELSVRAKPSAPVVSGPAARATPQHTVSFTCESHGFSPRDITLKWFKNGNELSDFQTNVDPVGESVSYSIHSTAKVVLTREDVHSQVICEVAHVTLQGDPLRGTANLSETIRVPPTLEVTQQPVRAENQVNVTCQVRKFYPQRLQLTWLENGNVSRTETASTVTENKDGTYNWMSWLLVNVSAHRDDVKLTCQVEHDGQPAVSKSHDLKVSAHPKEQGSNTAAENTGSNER
binder,measurement,setting,value
B1,binding result,[1],binds
B2,binding result,[1],binds
B3,binding result,[1],binds
B4,binding result,FcγRIV,no binding
same,binding result,FcγRIIb [2],no binding
same,binding result,FcγRIII,no binding
same,binding result,FcγRI [3],no binding
B5,binding result,FcγRI [4],binds
same,binding result,FcγRIIb [5],binds
B6,binding result,[6],no binding
B7,binding result,FcγRIIb [2],binds
same,binding result,FcγRIII,binds
same,binding result,FcγRI [3],binds
